Results taken from patent US20130302348A1 (MIT, published 2013).

Tests used:
[1] = target: biotinylated H1 (A/Solomon Islands/03/06) HA polypeptide (influenza virus A/Solomon Islands/03/06)
[2] = target: HA of H1N1 influenza strain PR8 (A/Puerto Rico/8/34) (influenza virus A/Puerto Rico/8/34 …, UniProt P03452 18-565); experiment: cell-based or functional assay
BSA = target: T1, BSA (Bos taurus, UniProt P02769); experiment: ELISA, KD table (Example 2)
T1 construct: also called 1% BSA

[3] = target: HA polypeptide of subtype H1 (Example 1 ELISA) (influenza virus, strain ); experiment: ELISA on HA-coated plate, KD from a fit of fractional saturation (Example 2)
[4] = target: HA polypeptide of subtype H3 (Example 1 ELISA) (influenza virus, strain ); experiment: as above

T1 sequence (P02769 25-607 limits assumed): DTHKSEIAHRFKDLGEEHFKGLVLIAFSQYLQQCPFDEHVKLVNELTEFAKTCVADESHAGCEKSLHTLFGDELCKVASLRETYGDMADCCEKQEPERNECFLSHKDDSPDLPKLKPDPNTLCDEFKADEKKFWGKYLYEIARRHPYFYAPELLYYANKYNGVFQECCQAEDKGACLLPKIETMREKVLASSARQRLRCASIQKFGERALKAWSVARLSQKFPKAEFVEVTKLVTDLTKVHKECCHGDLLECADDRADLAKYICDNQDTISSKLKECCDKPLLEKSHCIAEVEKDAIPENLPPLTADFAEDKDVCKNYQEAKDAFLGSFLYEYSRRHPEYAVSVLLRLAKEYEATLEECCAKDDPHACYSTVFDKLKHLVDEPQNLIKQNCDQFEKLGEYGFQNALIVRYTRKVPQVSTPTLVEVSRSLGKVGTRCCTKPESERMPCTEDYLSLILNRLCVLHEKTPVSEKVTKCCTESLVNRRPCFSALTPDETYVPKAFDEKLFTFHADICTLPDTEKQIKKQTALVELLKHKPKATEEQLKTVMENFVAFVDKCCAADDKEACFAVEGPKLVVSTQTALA

B1: exemplary antibody (VH-1 combined with VL-1; Table 4) (antibody, V domains shown)
VH: EVQLLESGGGLVKPGQSLKLSCAASGFTFTSYGMHWVRQPPGKGLEWVAVISYDGSYKYYADSVQGRFTISRDNSKNTLYLQMNSLRAEDTAVYYCAKDSELRSLLYFEWLSQGYFNPWGAGTTLTVSS
VL: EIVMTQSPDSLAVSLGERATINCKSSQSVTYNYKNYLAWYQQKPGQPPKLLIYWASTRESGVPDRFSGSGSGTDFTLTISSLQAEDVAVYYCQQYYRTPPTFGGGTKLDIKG
notes: also called exemplary influenza antibody
kon [1]: 297000 M⁻¹ s⁻¹
IC50, microneutralization assay followed by qPCR of viral yield in MDCK cells [2]: 0.5 µg/mL
binding result (BSA): no binding
Kd [3]: 0.074 nM
Kd [4]: 37.2 nM
